The record followed here is patent US10377811B2, “Peptides, combination of peptides as targets and for use in immunotherapy against gallbladder cancer and cholangiocarcinoma and other cancers” (Immatics biotechnologies GmbH, priority 2016, dated 2019).

One experiment concerns CD8+ T cells of healthy HLA-A*02 donors. Kind of experiment: In vitro T-cell priming immunogenicity assay with aAPCs loaded with peptide/MHC complexes and anti-CD28 antibody, multimer readout. The format is cell-based, human. Particulars: HLA class I peptides, Table 10A. The source says:
In order to obtain information regarding the immunogenicity of the TUMAPs of the present invention, the inventors performed investigations using an in vitro T-cell priming assay based on repeated stimulations of CD8+ T cells with artificial antigen presenting cells (aAPCs) loaded with peptide/MHC complexes and anti-CD28 antibody.
In order to perform in vitro stimulations by artificial antigen presenting cells loaded with peptide-MHC complex (pMHC) and anti-CD28 antibody, the inventors first isolated CD8+ T cells from fresh HLA-A*02 leukapheresis products via positive selection using CD8 microbeads (Miltenyi Biotec, Bergisch-Gladbach, Germany) of healthy donors obtained from the University clinics Mannheim, Germany, after informed consent.
PBMCs and isolated CD8+ lymphocytes were incubated in T-cell medium (TCM) until use consisting of RPMI-Glutamax (Invitrogen, Karlsruhe, Germany) supplemented with 10% heat inactivated human AB serum (PAN-Biotech, Aidenbach, Germany), 100 U/ml Penicillin/100 μg/ml Streptomycin (Cambrex, Cologne, Germany), 1 mM sodium pyruvate (CC Pro, Oberdorla, Germany), 20 μg/ml Gentamycin (Cambrex). 2.5 ng/ml IL-7 (PromoCell, Heidelberg, Germany) and 10 U/ml IL-2 (Novartis Pharma, Nürnberg, Germany) were also added to the TCM at this step.
Generation of pMHC/anti-CD28 coated beads, T-cell stimulations and readout was performed in a highly defined in vitro system using four different pMHC molecules per stimulation condition and 8 different pMHC molecules per readout condition.
The purified co-stimulatory mouse IgG2a anti human CD28 Ab 9.3 (Jung et al., 1987) was chemically biotinylated using Sulfo-N-hydroxysuccinimidobiotin as recommended by the manufacturer (Perbio, Bonn, Germany). Beads used were 5.6 μm diameter streptavidin coated polystyrene particles (Bangs Laboratories, Ill., USA).
800.000 beads/200 μl were coated in 96-well plates in the presence of 4×12.5 ng different biotin-pMHC, washed and 600 ng biotin anti-CD28 were added subsequently in a volume of 200 μl. Stimulations were initiated in 96-well plates by co-incubating […] CD8+ T cells with 2×10^5 washed coated beads in 200 μl TCM supplemented with 5 ng/ml IL-12 (PromoCell) for 3 days at 37° C. Half of the medium was then exchanged by fresh TCM supplemented with 80 U/ml IL-2 and incubating was continued for 4 days at 37° C. This stimulation cycle was performed for a total of three times. For the pMHC multimer readout using 8 different pMHC molecules per condition, a two-dimensional combinatorial coding approach was used as previously described (Andersen et al., 2012) with minor modifications encompassing coupling to 5 different fluorochromes. Finally, multimeric analyses were performed by staining the cells with Live/dead near IR dye (Invitrogen, Karlsruhe, Germany), CD8-FITC antibody clone SK1 (BD, Heidelberg, Germany) and fluorescent pMHC multimers. For analysis, a BD LSRII SORP cytometer equipped with appropriate lasers and filters was used. Peptide specific cells were calculated as percentage of total CD8+ cells. Evaluation of multimeric analysis was done using the FlowJo software (Tree Star, Oreg., USA). In vitro priming of specific multimer+ CD8+ lymphocytes was detected by comparing to negative control stimulations.
In the case of “33 (ILGTEDLIVEV; listed as Homo sapiens) [compound 33]”, the “wells (in vitro immunogenicity)” value is “++ (20%-49% = ++)”.

Consider “34 (LLWGNLPEI; listed as Homo sapiens) [compound 34]”, for which the “wells (in vitro immunogenicity)” value is given as “++ (20%-49% = ++)”.

On to “35 (GLIDEVMVL; listed as Homo sapiens) [compound 35]”, for which the “wells (in vitro immunogenicity)” value is listed as “++ (20%-49% = ++)”.

Turning to “36 (ILVDWLVQV; listed as Homo sapiens) [compound 36]”, the “wells (in vitro immunogenicity)” value is listed as “++ (20%-49% = ++)”.

On to “38 (KIQEILTQV; listed as Homo sapiens) [compound 38]”, for which the “wells (in vitro immunogenicity)” value is reported as “++ (20%-49% = ++)”.

Staying with this experiment, now noted: HLA-A*02 restricted peptides, percentage of positive wells among evaluable, Table 10B.
Regarding “6 (LLLPLLPPLSPS; listed as Homo sapiens) [compound 6]”, the “Wells positive [%]” value is reported as “+ (<20% = +)”.

As to “13 (VLPRAFTYV; listed as Homo sapiens) [compound 13]”, the “Wells positive [%]” value is given as “++++ (> = 70% = ++++)”.

As to “16 (AVMTDLPVI; listed as Homo sapiens) [compound 16]”, the “Wells positive [%]” value was “+ (<20% = +)”.

Consider “25 (NLSETASTMAL; listed as Homo sapiens) [compound 25]”, for which the “Wells positive [%]” value is “++ (20%-49% = ++)”.

A further experiment deals with HLA-A*02:01 (Homo sapiens, UniProt P04439, D140Y/D185E/D98H/E176V/E277Q/G131W/G231S/I119V/I121R/I166T/I218V/L300P/L318F/N151K/N90K/P208A/P217A/Q86G/Q94H/R138H/R169H/T345S). The experiment can be described thus: MHC binding assay (UV-ligand exchange, β2m ELISA). To be noted: peptide exchange yield. An excerpt: Candidate peptides for T cell based therapies according to the present invention were further tested for their MHC binding capacity (affinity). The individual peptide-MHC complexes were produced by UV-ligand exchange, where a UV-sensitive peptide is cleaved upon UV-irradiation, and exchanged with the peptide of interest as analyzed. Only peptide candidates that can effectively bind and stabilize the peptide-receptive MHC molecules prevent dissociation of the MHC complexes. To determine the yield of the exchange reaction, an ELISA was performed based on the detection of the light chain (β2m) of stabilized MHC complexes. The assay was performed as generally described in Rodenko et al. (Rodenko et al., 2006).
96 well MAXISorp plates (NUNC) were coated over night with 2 ug/ml streptavidin in PBS at room temperature, washed 4× and blocked for 1 h at 37° C. in 2% BSA containing blocking buffer. Refolded HLA-A*02:01/MLA-001 monomers served as standards, covering the range of 15-500 ng/ml. Peptide-MHC monomers of the UV-exchange reaction were diluted 100-fold in blocking buffer. Samples were incubated for 1 h at 37° C., washed four times, incubated with 2 ug/ml HRP conjugated anti-β2 m for 1 h at 37° C., washed again and detected with TMB solution that is stopped with […]. Absorption was measured at 450 nm. Candidate peptides that show a high exchange yield (preferably higher than 50%, most preferred higher than 75%) are generally preferred for a generation and production of antibodies or fragments thereof, and/or T cell receptors or fragments thereof, as they show sufficient avidity to the MHC molecules and prevent dissociation of the MHC complexes.
As to “1 (YAAEIASAL; listed as Homo sapiens) [compound 1]”, the “Peptide exchange (MHC class I binding score)” value (from here on “Peptide exchange”) is on record as “+++ (>50 = +++)”.

As for “2 (AAYPEIVAV; listed as Homo sapiens) [compound 2]”, the “Peptide exchange” value is listed as “+++ (>50 = +++)”.

On to “3 (EMDSTVITV; listed as Homo sapiens) [compound 3]”, for which the “Peptide exchange” value is listed as “+++ (>50 = +++)”.

Turning to “4 (FLLEAQNYL; listed as Homo sapiens) [compound 4]”, the “Peptide exchange” value is “++++ (>75% = ++++)”.

For the substance “5 (GLIDEVMVLL; listed as Homo sapiens) [compound 5]”, the “Peptide exchange” value was “++++ (>75% = ++++)”.

Consider “6 (LLLPLLPPLSPS; listed as Homo sapiens) [compound 6]”, for which the “Peptide exchange” value is given as “++++ (>75% = ++++)”.

On to “7 (LLLSDPDKVTI; listed as Homo sapiens) [compound 7]”, for which the “Peptide exchange” value is “++++ (>75% = ++++)”.

Consider “8 (LSASLVRIL; listed as Homo sapiens) [compound 8]”, for which the “Peptide exchange” value is given as “+ (>10% = +)”.

“9 (RLAKLTAAV; listed as Homo sapiens) [compound 9]”: the “Peptide exchange” value is “++++ (>75% = ++++)”.

Take “10 (SAFPFPVTVSL; listed as Homo sapiens) [compound 10]”: the “Peptide exchange” value is listed as “++ (>20% = ++)”.

Take “11 (SIIDFTVTM; listed as Homo sapiens) [compound 11]”: the “Peptide exchange” value is listed as “++++ (>75% = ++++)”.

For the substance “12 (TILPGNLQSW; listed as Homo sapiens) [compound 12]”, the “Peptide exchange” value is given as “+ (>10% = +)”.

“13 (VLPRAFTYV; listed as Homo sapiens) [compound 13]”: the “Peptide exchange” value is “++++ (>75% = ++++)”.

With “14 (YGIEFVVGV; listed as Homo sapiens) [compound 14]”, the “Peptide exchange” value is given as “++++ (>75% = ++++)”.

Take “15 (SVIDSLPEI; listed as Homo sapiens) [compound 15]”: the “Peptide exchange” value is given as “++++ (>75% = ++++)”.

As for “16 (AVMTDLPVI; listed as Homo sapiens) [compound 16]”, the “Peptide exchange” value is reported as “++++ (>75% = ++++)”.

Consider “17 (VLYDNTQLQL; listed as Homo sapiens) [compound 17]”, for which the “Peptide exchange” value was “++++ (>75% = ++++)”.

Consider “18 (SLSPDLSQV; listed as Homo sapiens) [compound 18]”, for which the “Peptide exchange” value is listed as “+++ (>50 = +++)”.

As for “19 (TAYPQVVVV; listed as Homo sapiens) [compound 19]”, the “Peptide exchange” value was “++ (>20% = ++)”.

In the case of “20 (VLQDELPQL; listed as Homo sapiens) [compound 20]”, the “Peptide exchange” value was “++++ (>75% = ++++)”.

Regarding “21 (IAFPTSISV; listed as Homo sapiens) [compound 21]”, the “Peptide exchange” value is on record as “+++ (>50 = +++)”.

For the substance “22 (SAFGFPVIL; listed as Homo sapiens) [compound 22]”, the “Peptide exchange” value was “++ (>20% = ++)”.

Turning to “23 (SLLSELLGV; listed as Homo sapiens) [compound 23]”, the “Peptide exchange” value was “++++ (>75% = ++++)”.

Turning to “24 (ISAPLVKTL; listed as Homo sapiens) [compound 24]”, the “Peptide exchange” value is listed as “+ (>10% = +)”.

On to “25 (NLSETASTMAL; listed as Homo sapiens) [compound 25]”, for which the “Peptide exchange” value is recorded as “++++ (>75% = ++++)”.

With “26 (TAQTLVRIL; listed as Homo sapiens) [compound 26]”, the “Peptide exchange” value is listed as “+ (>10% = +)”.

On to “27 (ALAEQVQKA; listed as Homo sapiens) [compound 27]”, for which the “Peptide exchange” value is “+++ (>50 = +++)”.

With “28 (YASGSSASL; listed as Homo sapiens) [compound 28]”, the “Peptide exchange” value is “+ (>10% = +)”.

Regarding “29 (FASEVSNVL; listed as Homo sapiens) [compound 29]”, the “Peptide exchange” value is given as “++++ (>75% = ++++)”.

For the substance “30 (FASGLIHRV; listed as Homo sapiens) [compound 30]”, the “Peptide exchange” value is listed as “+++ (>50 = +++)”.

“31 (IAIPFLIKL; listed as Homo sapiens) [compound 31]”: the “Peptide exchange” value is reported as “++++ (>75% = ++++)”.

As to “32 (YVISQVFEI; listed as Homo sapiens) [compound 32]”, the “Peptide exchange” value is listed as “++++ (>75% = ++++)”.
